Measured values taken from the supplement of paper PMC11316812.
± gives the standard deviation of the averaged measurements.

Tests used:
MCF7 = assay: percentage of EdU-negative (G0-arrested) nuclei per well, 72 h; higher = more G0 arrest; conditions: reference: sequence is the full UniProt precursor, the tested protein was the secreted form or ectodomain
hTERT-HMEC = assay: as above; conditions: reference: sequence is the full UniProt precursor, the tested protein was the secreted form or ectodomain
[1] = protein concentration 0.01025 µM
[2] = protein concentration 0.1025 µM
[3] = protein concentration 0.02025 µM
[4] = protein concentration 0.2025 µM
[5] = protein concentration 0.0225 µM
[6] = protein concentration 0.00575 µM
[7] = protein concentration 0.0575 µM
[8] = protein concentration 0.0085 µM
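Note: secreted proteins added to cultured cells, EdU pulse at the end, nuclei found by Hoechst imaging, EdU status from nuclear versus surrounding ring intensity ratio, PBS as neutral control.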

With “MVRARHQPGGLCLLLLLLCQFMEDRSAQAGNCWLRQAKNGRCQVLYKTELSKEECCSTGRLSTSWTEEDVNDNTLFKWMIFNGGAPNCIPCKETCENVDCGPGKKCRMNKKNKPRCVCAPDCSNITWKGPVCGLDGKTYRNECALLKARCKEQPELEVQYQGRCKKTCRDVFCPGSSTCVVDQTNNAYCVTCNRICPEPASSEQYLCGNDGVTYSSACHLRKATCLLGRSIGLAYEGKCIKAKSCEDIQCTGGKKCLWDFKVGRGRCSLCDELCPDSKSDEPVCASDNATYASECAMKEAACSSGVLLEVKHSGSCNSISEDTEEEEEDEDQDYSFPISSILEW” the “percentage of EdU-negative” value (MCF7; [1]) was 25.7 ± 1.4%, the “percentage of EdU-negative” value (MCF7; [2]) was 26.2 ± 0.46% and the “percentage of EdU-negative” value (hTERT-HMEC; [1]) was 5.35 ± 0.64%. The “percentage of EdU-negative” value (hTERT-HMEC; [2]) was 6.11 ± 0.15%.

In the case of “MVRLAAELLLLLGLLLLTLHITVLRGSGAADGPDAAAGNASQAQLQNNLNVGSDTTSETSFSLSKEAPREHLDHQAAHQPFPRPRFRQETGHPSLQRDFPRSFLLDLPNFPDLSKADINGQNPNIQVTIEVVDGPDSEADKDQHPENKPSWSVPSPDWRAWWQRSLSLARANSGDQDYKYDSTSDDSNFLNPPRGWDHTAPGHRTFETKDQPEYDSTDGEGDWSLWSVCSVTCGNGNQKRTRSCGYACTATESRTCDRPNCPGIEDTFRTAATEVSLLAGSEEFNATKLFEVDTDSCERWMSCKSEFLKKYMHKVMNDLPSCPCSYPTEVAYSTADIFDRIKRKDFRWKDASGPKEKLEIYKPTARYCIRSMLSLESTTLAAQHCCYGDNMQLITRGKGAGTPNLISTEFSAELHYKVDVLPWIICKGDWSRYNEARPPNNGQKCTESPSDEDYIKQFQEAREY [B1AKI9]”, the “percentage of EdU-negative” value (MCF7; [3]) is reported as 25.3 ± 2.1%, the “percentage of EdU-negative” value (MCF7; [4]) is reported as 24.1 ± 0.87% and the “percentage of EdU-negative” value (hTERT-HMEC; [3]) is reported as 4.82 ± 0.37%. For the same sequence, the “percentage of EdU-negative” value (hTERT-HMEC; [4]) was 5.13 ± 0.59%.

For “MVRMVPVLLSLLLLLGPAVPQENQDGRYSLTYIYTGLSKHVEDVPAFQALGSLNDLQFFRYNSKDRKSQPMGLWRQVEGMEDWKQDSQLQKAREDIFMETLKDIVEYYNDSNGSHVLQGRFGCEIENNRSSGAFWKYYYDGKDYIEFNKEIPAWVPFDPAAQITKQKWEAEPVYVQRAKAYLEEECPATLRKYLKYSKNILDRQDPPSVVVTSHQAPGEKKKLKCLAYDFYPGKIDVHWTRAGEVQEPELRGDVLHNGNGTYQSWVVVAVPPQDTAPYSCHVQHSSLAQPLVVPWEAS”, the “percentage of EdU-negative” value (MCF7; [5]) was 26.1 ± 2%, the “percentage of EdU-negative” value (MCF7; protein concentration 0.225 µM) was 26.1 ± 1.9% and the “percentage of EdU-negative” value (hTERT-HMEC; [5]) was 5.49 ± 0.45%. The “percentage of EdU-negative” value (hTERT-HMEC; protein concentration 0.225 µM) was 5.19 ± 0.89%.

For “MVRPMLLLSLGLLAGLLPALAACPQNCHCHSDLQHVICDKVGLQKIPKVSEKTKLLNLQRNNFPVLAANSFRAMPNLVSLHLQHCQIREVAAGAFRGLKQLIYLYLSHNDIRVLRAGAFDDLTELTYLYLDHNKVTELPRGLLSPLVNLFILQLNNNKIRELRAGAFQGAKDLRWLYLSENALSSLQPGALDDVENLAKFHVDRNQLSSYPSAALSKLRVVEELKLSHNPLKSIPDNAFQSFGRYLETLWLDNTNLEKFSDGAFLGVTTLKHVHLENNRLNQLPSNFPFDSLETLALTNNPWKCTCQLRGLRRWLEAKASRPDATCASPAKFKGQHIRDTDAFRSCKFPTKRSKKAGRH”, the “percentage of EdU-negative” value (MCF7; [6]) was 26.1 ± 0.54%, the “percentage of EdU-negative” value (MCF7; [7]) was 29 ± 0.99% and the “percentage of EdU-negative” value (hTERT-HMEC; [6]) was 5.33 ± 0.1%. The “percentage of EdU-negative” value (hTERT-HMEC; [7]) was 7.33 ± 0.97%.

In the case of “MVSALRGAPLIRVHSSPVSSPSVSGPRRLVSCLSSQSSALSQSGGGSTSAAGIEARSRALRRRWCPAGIMLLALVCLLSCLLPSSEAKLYGRCELARVLHDFGLDGYRGYSLADWVCLAYFTSGFNAAALDYEADGSTNNGIFQINSRRWCSNLTPNVPNVCRMYCSDLLNPNLKDTVICAMKITQEPQGLGYWEAWRHHCQGKDLTEWVDGCDF [Q8IXA5]”, the “percentage of EdU-negative” value (MCF7; [5]) is reported as 23.7 ± 1.4%, the “percentage of EdU-negative” value (MCF7; protein concentration 0.225 µM) is reported as 23.6 ± 2.9% and the “percentage of EdU-negative” value (hTERT-HMEC; [5]) is reported as 4.64 ± 0.051%. The “percentage of EdU-negative” value (hTERT-HMEC; protein concentration 0.225 µM) was 10 ± 1.4%.

In the case of “MVSQALRLLCLLLGLQGCLAAGGVAKASGGETRDMPWKPGPHRVFVTQEEAHGVLHRRRRANAFLEELRPGSLERECKEEQCSFEEAREIFKDAERTKLFWISYSDGDQCASSPCQNGGSCKDQLQSYICFCLPAFEGRNCETHKDDQLICVNENGGCEQYCSDHTGTKRSCRCHEGYSLLADGVSCTPTVEYPCGKIPILEKRNASKPQGRIVGGKVCPKGECPWQVLLLVNGAQLCGGTLINTIWVVSAAHCFDKIKNWRNLIAVLGEHDLSEHDGDEQSRRVAQVIIPSTYVPGTTNHDIALLRLHQPVVLTDHVVPLCLPERTFSERTLAFVRFSLVSGWGQLLDRGATALELMVLNVPRLMTQDCLQQSRKVGDSPNITEYMFCAGYSDGSKDSCKGDSGGPHATHYRGTWYLTGIVSWGQGCATVGHFGVYTRVSQYIEWLQKLMRSEPRPGVLLRAPFP”, the “percentage of EdU-negative” value (MCF7; [8]) is reported as 24.3 ± 4.2%, the “percentage of EdU-negative” value (MCF7; protein concentration 0.085 µM) is reported as 24.2 ± 0.32% and the “percentage of EdU-negative” value (hTERT-HMEC; [8]) is reported as 4.77 ± 0.36%. The “percentage of EdU-negative” value (hTERT-HMEC; protein concentration 0.085 µM) was 5.93 ± 1.7%.
